Laboratory results published in the supplement of paper PMC12042874.
± gives the uncertainty stated by the source.

Assay: amyloid nucleation score (Sup35N fusion, yeast selection) (log enrichment); library NNK1; higher = more nucleation; inactive = no reads after selection
In short: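 After 24 hours of induction with 100 μM copper sulfate, psi-negative yeast expressing peptides of 20 random codons fused to Sup35N were grown for 7 days at 30°C on medium lacking adenine and uracil. Input and output plasmid inserts were sequenced with Illumina, and sequences with under 100 input reads were discarded. Scores for nucleation are the DiMSum log enrichment of output over input reads, centred on the mode score of non-aggregating sequences.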

Substance | amyloid nucleation score
GGRKKQLLDNYKGTYLVARI | -0.096 ± 1.1
SLFQYWDVRDVESTFSVCNC | 6.339 ± 0.047
AFYRAFTPCISVPIRND | 0.765 ± 0.46
KVASSDMSDLSTH | inactive
ISRVIFLR | 1.41 ± 0.78
GLSGTSALPPGIS | 0.318 ± 0.79
VKMNVYYLIILNLWSYVMLG | -0.994 ± 1.4
SCGSVFF | -0.758 ± 2.1
SNMTSRYYNCMVTWVRILVR | 1.19 ± 0.41
SWCLKDMSNMLLASIRRFVL | inactive
KRTESKLDYFKVRLCRTRFS | 0.122 ± 0.43
LLVVRLNVCRRHMDFKYG | -0.419 ± 0.39
CSGWMNGLSRVKPAHL | inactive
FFWYPTFISFDRKFEVTIGP | 5.07 ± 0.053
MFSLYYPFSNWFDLI | -0.001 ± 0.52
VLGLLITGDRLS | 0.1 ± 1.4
DAQFGRHVLGLFFSRQEMLV | -1.52 ± 1.2
SFTWRQNQVGNA | 1.24 ± 0.4
LPFSLFSLD | 0.308 ± 0.42
YINVLVKAHGMMVPRRLKWV | 0.086 ± 0.32
SNVAVRTSCYTGARMYTRWW | 1.94 ± 0.19
WFARNTLLEWEN | -1.57 ± 2.1
KIGWL | -0.555 ± 0.58
FWANH | inactive
INTSYIEEHYELVGFVHWNV | -0.449 ± 0.79

Substance | amyloid nucleation score
KVLSIRWECPLECFALQSYV | 0.042 ± 0.32
RNWCIMFLTYVL | 3.74 ± 0.083
KLGTPLRQSDVS | -0.461 ± 0.59
SMDLLRDLSVDKWAFF | 0.133 ± 0.33
GYSNFTNYLFQ | 0.091 ± 0.28
DHYYVVAFFRQLWRCCLFRV | inactive
TRAWNGGCGALCRITFDPSC | 2.6 ± 0.13
YLTSANTSFTFESWWCL | 2.93 ± 0.22
GRDRSWDIRWLYTLTEPTWH | -1.62 ± 2.7
QVHPPMTTGPC | 0.291 ± 0.53
SNFMGQD | 0.733 ± 0.7
LAWTSRDWRKFEYIMGIWGI | -1.01 ± 2.4
LYLYNYRFAGLFFIDLETIW | -0.415 ± 0.57
LGVAFQRYVCICEVVSLSRG | 0.523 ± 0.32
MLPRPVRPVGGTRWESGVKL | 0.548 ± 0.3
YHVMD | inactive
MGDVFILFLLAGFLEDHNGY | -1.24 ± 0.45
AYAKLYKLSVLEPGRRVRMQ | 1.21 ± 0.57
YGVNHRMYSKWHSVGAWMCR | 1.21 ± 0.66
ILMILNLRTTSPWDWNWVSV | 0.296 ± 0.83
TAKSFFRVHFSHWTRHSPSR | 4.16 ± 0.14
ISCGCMRVLTRDNLFLKFRF | 0.12 ± 0.58
IGWCWVIMQGNIEQVDRG | 4.72 ± 0.074
NLVFSMPAVWALVYVFTLFI | 1.51 ± 0.37
SKLLHMEWNQELDPSLSLLS | -1.14 ± 0.66

Substance | amyloid nucleation score
RNGLALRLTNTTRSTYLSRQ | -0.166 ± 1.1
GRVQGNFLINRVCRWWGVAG | 0.182 ± 0.56
FNISFCIASSYVNTIGKQQG | 3.32 ± 0.12
VGSHVRREFCELVYRS | -0.303 ± 0.44
YIVAVEHLLCSVRSYGHGMG | 0.724 ± 0.83
VSINGGEYMSEFAGICGPVD | 1.83 ± 0.46
GVSMVGGHATLLG | -0.206 ± 1.2
QIQIT | 0.152 ± 1
LFNMFDQITCIVDSDNYRHA | 0.116 ± 0.25
HHTQE | -0.557 ± 1.6
ACANLKSGIFKRFFTSCSGT | -0.959 ± 0.65
QHHMVEIWPSDECVEWLVSS | -0.034 ± 0.22
GSCFLCKI | 0.686 ± 0.53
CRYPWRH | -0.042 ± 0.6
TFVSL | 0.332 ± 0.49
MPAMTMMWQ | 0.415 ± 0.4
IWGNVSLIRGFCPVKLWSQR | -0.082 ± 0.46
FCRKSQEKYWVPFK | -0.667 ± 1
QNMWIHCWCGRGGMMTREPG | 4.73 ± 0.052
SLGLNMFGLLCSNFQSVRVK | 0.129 ± 0.53
HIPYVYGPIIRGEATYTEGV | -0.29 ± 1.2
EVIVYKTFEDVSQRVRHNWN | 1.89 ± 0.22
RKDVLEGADSMTMVRRSSLF | -0.286 ± 0.35
TFCRLISGPKIRL | -0.058 ± 0.42
NFYSGICMICLGT | 7.307 ± 0.065

Substance | amyloid nucleation score
LLAMFKFDNPHILFCSSILL | 5.62 ± 0.078
MQVHARFYSFREEDIAGRAR | -0.443 ± 0.52
YGLPFHVPACCAYLVVCKGR | -0.018 ± 0.54
KVLNILYWGRTDVG | 1.41 ± 0.33
RHALIYMVQVAQAGWGGLEV | -0.767 ± 0.78
TRLGYISRDKGYSPCR | -0.146 ± 0.39
GRLIGDSWLGYTKSGPGRKR | inactive
DYSSSFVNCIYKKPGQGMFG | 0.133 ± 0.54
VWRLSI | -0.557 ± 0.41
SNLLTRSPLMLSSIIMVMNC | -0.133 ± 0.75
DFGLCHAQNSITQAPDR | -0.153 ± 0.93
DCPSS | 0.537 ± 0.29
TLRLAREGWWEWKHVSRGEY | -0.033 ± 0.26
CTGFLRVWPLGEMYEDRR | 0.12 ± 0.58
ILSPRVPINRICAVEQRRGI | -0.952 ± 0.83
YDVVRSGFLGVDNITRLMPR | -0.27 ± 1.2
ILVTLHMTCLRRSRNTLSFY | -0.45 ± 1.5
NCIPALHEYVCMRR | 0.282 ± 0.54
LESRFRKMFPRVVRDTWGRG | -0.628 ± 1.7
VCNCCLHVYIPSRAGNRPMR | 8.251 ± 0.072
VKCVKVLMLHSWF | 1.53 ± 0.38
CNTLDLMAFNSLYLSPVSTC | inactive
PLKFTSSMSG | -1.23 ± 0.51
SWDSLGHYNGAIE | -0.268 ± 0.54
DRVLAVVYAAFAGFRRCMRR | inactive

Substance | amyloid nucleation score
HFLVMITRL | 5.15 ± 0.091
VKFIGYFLRNTSSSSCTSDP | 0.097 ± 0.58
SCGTYFLFICHKSLYWHVHI | -0.594 ± 0.9
NINPLFI | 1.96 ± 0.26
FRGFVVGGGT | -0.664 ± 0.61
VCDFNVNYMSLVCEIHGT | 0.495 ± 0.56
GISCFHW | 1.98 ± 0.18
RGCVGRSFSDEES | -1.22 ± 1.5
HHPYFSAMM | 0.22 ± 0.54
FHYWFIIKVPTWMVYRDLTA | -0.203 ± 0.34
RSSILMVVVANHSIIVTRGV | 3.04 ± 0.13
KYKFVRANLILFGMVRG | -0.115 ± 0.25
PVRQSL | 0.343 ± 0.33
YTTASDNHVWSWLEYWVRVI | 0.368 ± 0.56
QKGLDVVWYDTRSDMYNKIL | -0.569 ± 0.7
MADFFIHCFLSSYCEWFIWR | -0.283 ± 0.46
TCLTY | -0.846 ± 2.4
ATLGDSEEYRLAFGLPLYCR | inactive
YRGLGFVERESRDRG | -0.418 ± 0.8
SFMQFDIRFT | 1.4 ± 0.27
GYSGLLYVSRVVSYLIHFWV | 0.702 ± 0.47
VLGMWIWQYRYGDDYFLLFV | 2.7 ± 0.17
KLSGFKFEVTCDGHEFWGHP | 1.08 ± 0.54
FYKQLYSAEHKKFSCTAFVK | inactive
VVSYWTHYPNKSLSWASWAA | -0.671 ± 1.2

Substance | amyloid nucleation score
RRHAHLWLYLGNLGCWLEEV | -0.139 ± 0.38
NDRTGCVVGLHCEMNI | 5.961 ± 0.045
KLIYLMGPIPWVLRSCWQVF | 0.208 ± 0.37
ETHLIGVCYNRCL | 0.643 ± 0.42
STTPQRLNFDMSTPISWIRQ | 0.173 ± 0.32
GYNWGFVHCSYRSSHFGSGF | 0.348 ± 0.26
RLVTYPSVLSSVSEGSGRGG | 1.05 ± 0.66
MLPMLQPTLQET | 0.313 ± 0.42
IRPNMRAVKIEVQDVGSQCV | 0.428 ± 0.6
LEINIVACVDTA | -0.559 ± 0.36
TDSILKRYGMSFDFWRSWRN | 0.76 ± 0.23
VIYLGRIVVEGSNLTSKSSA | 0.85 ± 0.7
TSLWCQLRKFNYI | -0.181 ± 0.26
NRFYL | 0.597 ± 0.4
SDGMFSYNVRFAQRSWMYRT | -0.14 ± 0.55
SRYALLIYVLEDGCLAVLKP | 0.562 ± 1.2
AFEFKRLRIACVNDGQINLG | 2.43 ± 0.42
SSYVNRDCAFLWDD | 2.75 ± 0.19
KHSGFQTCVNYLD | -0.194 ± 0.42
VDCMGKMVLFLPTFGDGFIV | -0.123 ± 0.32
CSNLM | -0.675 ± 0.66
AGLVYEIKWYYADL | -0.482 ± 0.33
LRTMGISCDWETFDLDINKG | inactive
EQAGVRVTDYVAVELLFWRF | 0.826 ± 0.39
RTINMQLVTLYLTSRVVDNF | 1.1 ± 0.47

Substance | amyloid nucleation score
IFSPVSCDMVTDGMGTSCWY | 0.144 ± 0.9
RLCVVRDRFIGPIRRAFLHP | inactive
NEDLNS | 0.194 ± 0.31
FWVAIRVRVIWVNKKNDGCI | -0.147 ± 0.66
TNRWADQTNKDAHRQTCD | -0.591 ± 1.1
DSTDSVESEWNTVRSYVSLW | inactive
LLWRVSPSTLTSAIFKCLHS | -0.741 ± 0.86
IFNML | -0.083 ± 0.93
YQSLVMFMEPDSRVLRVCRA | 0.104 ± 0.69
HCPELLLPPSKCTIINGNDK | 1.52 ± 0.38
VVMEMINFHPSTLCSILQ | 5.07 ± 0.11
VLCSCAMGYMFFFRAMMFR | -0.038 ± 0.38
VCFALSI | -0.098 ± 0.46
WLISFGDFDGSMFKMMSNTK | 2.67 ± 0.13
GCVTYIYGCMLYCEEAFR | 5.17 ± 0.085
FDRFCFIIIVQYSFHG | 1.35 ± 0.76
ALRGVRVMWAKRS | -0.484 ± 0.88
SADLCLMWSGTNC | inactive
GKGWYTDSMCRIRMMNARLL | 0.233 ± 0.34
AWSRLSVNPVVEENVMAIAL | 0.909 ± 0.69
FTYIISRISFMRDWVF | -0.257 ± 1.4
VTLSIYVNNSDGISR | 0.588 ± 0.4
SCLVWLFRCFFRTYQYYEFI | 0.253 ± 0.24
